Measured values taken from publication PMC11892650 (Proceedings of the National Academy of Sciences of the …, 2025).
Where a chain is given by its changes, count along the chain named. Names and notes keep the numbering of the source. Values joined by “and” are separate entries in the source; they are usually repeats but may differ in a detail not shown here. Equal values may be shown once.

B1: IL mutant of JIP1_(116–266) (I211A, L213A) (domain or fragment, UniProt Q9UQF2 116-266, looked up)
chain: ERAARRPGAGPPKAESGQEPASRGQGQSQGQSQGPGSGDTYRPKRPTTLNLFPQVPRSQDTLNNNSLGKKHSWQDRVSRSSSPLKTGEQTPPHEHACASDELPPQSGPAPTTDRGTSTDSPCRRSTATQMAPPGGPPAAPPGGRGHSHRDR
B2: JIP1_(116–266), the shortest construct comprising the D-motif (domain or fragment, UniProt Q9UQF2 116-266, looked up)
chain: B1 chain with A96I, A98L
B3: JIP1_(1–266) (domain or fragment, UniProt Q9UQF2 1-266, looked up)
chain: MAERESGGLGGGAASPPAASPFLGLHIASPPNFRLTHDISLEEFEDEDLSEITDECGISLQCKDTLSLRPPRAGLLSAGGGGAGSRLQAEMLQMDLIDATGDTPGAEDDEEDDDEERAARRPGAGPPKAESGQEPASRGQGQSQGQSQGPGSGDTYRPKRPTTLNLFPQVPRSQDTLNNNSLGKKHSWQDRVSRSSSPLKTGEQTPPHEHICLSDELPPQSGPAPTTDRGTSTDSPCRRSTATQMAPPGGPPAAPPGGRGHSHRDR

How the values were obtained:
[1] = target: c-Jun N-terminal kinase 1 (JNK1), inactive, unphosphorylated form (UniProt P45983); test: native MS
[2] = target: RPLL mutant of JIP1_(116–266) (R160E, P161A, L164A, L166A) (UniProt Q9UQF2); test: NMR 15N CPMG relaxation dispersion
[3] = target: T1, c-Jun N-terminal kinase 1 (JNK1), inactive, unphosphorylated form (UniProt P45983 5-364); test: native MS
[4] = target: T1, c-Jun N-terminal kinase 1 (JNK1), …; test: ITC

T1 sequence (P45983 5-364): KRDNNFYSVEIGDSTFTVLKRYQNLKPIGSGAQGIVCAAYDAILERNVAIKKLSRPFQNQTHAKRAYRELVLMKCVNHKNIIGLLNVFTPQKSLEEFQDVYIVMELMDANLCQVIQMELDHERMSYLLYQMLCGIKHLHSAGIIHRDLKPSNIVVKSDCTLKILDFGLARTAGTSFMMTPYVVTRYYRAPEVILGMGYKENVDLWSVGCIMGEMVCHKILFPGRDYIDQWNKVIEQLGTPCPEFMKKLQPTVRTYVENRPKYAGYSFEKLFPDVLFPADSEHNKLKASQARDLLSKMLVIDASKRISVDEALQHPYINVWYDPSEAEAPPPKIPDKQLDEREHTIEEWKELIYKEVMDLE
Chain of c-Jun N-terminal kinase 1 (JNK1), inactive, unphosphorylated form (UniProt P45983) (P45983 5-364): as above

Molecule	stoichiometry N [3]	Kd [4] [µM]	dH [4] [kJ/mol]	also measured
JIP1_(1–145) (from UniProt Q9UQF2 1-145) (domain or fragment)	–	–	–	stoichiometry N [1]: 1
c-Jun N-terminal kinase 1 (JNK1), inactive, unphosphorylated form (from UniProt P45983 5-364) (enzyme)	–	–	–	Kd [2]: 2200 µM; bound-state population pB [2]: 1.6%; exchange rate constant kex [2]: 1100 s⁻¹; koff [2]: 1080 s⁻¹; kon [2]: 480000 M⁻¹ s⁻¹
B1	1	0.082	-44.8	–
B2	1	0.081	-48.5	ΔΔH (binding enthalpy against the D-motif peptide) [4]: 16.7 kJ/mol
B3	1 and 2 JNK1 per JIP1	–	–	–
RPKRPTTLNLF [peptide corresponding to the D-motif of JIP1 (157RPKRPTTLNLF167)]	–	0.217	–	–
